The text below walks through data of patent US20220363757A1 (SYMPHOGEN A S, published 2022).

Residue numbers refer to the chain shown, from its start. In names and notes the source's numbering stands.

B1: antibody 15646 (antibody, human IgG1, kappa, L234A L235A, V domains shown)
VH: QVQLQQWGAGLLKPSETLSLTCAVYGGSFSGYYWSWIRQPPGKGLEWIGEINHRGSTNYNPSLKSRVTISVDTSKNQFSLKLSSVTAADTAVYYCTRGEEWESLFFDYWGQGTLVTVSS
VL: EIVLTQSPATLSLSPGERATLSCRASQSISSYLAWYQQKPGQAPRLLIYGASNRATGIPARFSGSGSGTDFTLTISSLEPEDFAVYYCQQRSNWPLTFGGGTRVEIKR
notes: OmniRat-derived human IgG1 with L234A/L235A (LALA), kappa; also called 15646 (15)
B2: antibody 15431 (antibody, human IgG1, kappa, L234A L235A, V domains shown)
VH: QVQLQQSGPGLVKPSQTLSLTCAISGDSVSSNSAAWNWIRQSPSRGLEWLGRTYYRSKWYNDYAVSVKSRITINPDTSKNQFSLQLNSVTPEDTAVYYCARDDDWNDFDYWGQGTLVTVSS
VL: B1 VL with I29V, G50D, R103K
notes: OmniRat-derived human IgG1 LALA, kappa; also called 15431 (38); 15431 (83)
B3: antibody 15532 (antibody, human IgG1, kappa, L234A L235A, V domains shown)
VH: QVQLQQWGAGLLRPSETLSLTCAVYGESFSGYYWNWIRQPPGKGLEWIGEINHSGSTNYNPSLKSRVTISVDTSKTQFSLKLSSVTAADTAVYYCARGWDLLDWNDYWNEYWGQGTLVTVSS
VL: B1 VL with I29V, G50D, R103K
notes: OmniRat-derived human IgG1 LALA, kappa
B4: antibody 15723 (antibody, human IgG1, kappa, L234A L235A, V domains shown)
VH: B1 VH with S35N, R54S, T96A, E100D, E102G, S103E, L104S
VL: B1 VL with I29V, G50A, R103K
notes: OmniRat-derived human IgG1 LALA, kappa; also called 15723 (39)
B5: antibody 15595 (antibody, V domains shown)
VH: QVQLVQSGAEVKKPGASVKVSCKVSGYSLTEISMHWVRQAPGKGLEWMGGFDPEDGETIYAQRFQGRVIMTEDTSTDTAYMELSSLRSEDTAVYYCATGGWGPNWFDPWGQGTLVTVSS
VL: DIQMTQSPSSVSASVGDRVTITCRASQGISSWLAWYQQKPGKAPKLLIYAASSLQSGVPSRFSGSGSGTDFTLTISSLQPEDFATYYCQQANSFPFTFGPGTKVDIKR
notes: OmniRat-derived human IgG1 LALA, kappa; also called 15595 (52)
B6: antibody 15572 (antibody, human IgG1, kappa, L234A L235A, V domains shown)
VH: QLQLQESGPGLVKPSETLSLTCTVSGDSISSSSYYWGWIRQPPGKGLEWIGSIFYSGNTYYNPSLKSRVTISVDTSKNQFSLKLSSVTAADTAVYYCAREDDFLTDYYGAFDIWGQGTMVTVSS
VL: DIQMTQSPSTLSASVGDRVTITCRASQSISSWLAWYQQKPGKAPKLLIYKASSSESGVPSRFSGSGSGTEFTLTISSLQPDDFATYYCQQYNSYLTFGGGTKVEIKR
notes: OmniRat-derived human IgG1 LALA, kappa; also called 15572 (91)
B7: antibody 15011 (antibody, human IgG1, lambda, L234A L235A, V domains shown)
VH: EVQLLESGGGLVQPGGSLRLSCAASGFDFRSYAMMWVRQAPGKGLEWVGGINGEVGGSNTYYAPAVKGRATISRDNSKNTLYLQMNSLRAEDTAVYYCVKGAGACGICNDDIDAWGQGTLVTVSS
VL: SYELTQDPAVSVALGQTVRITCSGAGSYAGSYYYGWHQQKPGQAPVTVIYDNDKRPSNIPDRFSGSSSGNTASLTITGAQAEDEADYYCGSTNDNDDGGLFGSGTKVTVLG
notes: humanized chicken-derived antibody, human IgG1 constant region, lambda (IGLC1*01)

The first experiment deals with T1, human LAG-3 on transiently transfected CHO-S cells (human, UniProt P18627 23-525).
T1 construct: also called huLAG-3
T1 sequence: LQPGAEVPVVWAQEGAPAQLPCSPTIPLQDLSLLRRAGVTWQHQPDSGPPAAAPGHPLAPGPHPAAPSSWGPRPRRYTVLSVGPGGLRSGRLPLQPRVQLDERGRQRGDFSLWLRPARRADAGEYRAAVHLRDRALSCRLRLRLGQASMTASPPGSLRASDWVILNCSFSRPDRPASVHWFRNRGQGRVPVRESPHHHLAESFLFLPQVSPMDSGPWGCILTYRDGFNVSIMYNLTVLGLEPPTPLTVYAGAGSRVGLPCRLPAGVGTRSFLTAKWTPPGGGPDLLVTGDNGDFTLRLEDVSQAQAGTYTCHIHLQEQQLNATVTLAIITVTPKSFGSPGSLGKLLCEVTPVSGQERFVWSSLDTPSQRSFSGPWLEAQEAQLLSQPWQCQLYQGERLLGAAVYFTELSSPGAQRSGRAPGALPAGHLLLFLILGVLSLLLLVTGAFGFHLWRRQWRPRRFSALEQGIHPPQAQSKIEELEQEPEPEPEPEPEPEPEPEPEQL
Description: flow cytometry on transfected CHO-S cells. A general note: A flow cytometer gives signals particle by particle.
Broadly, the EC50 is the concentration needed to bring the measured effect to its halfway point. The molecule B1 returned an EC50 of 0.1 nM.

In the case of B2, the EC50 was found to be 0.04 nM.

In turn, B3 registered an EC50 of 0.07 nM.

In the case of B4, it took 0.09 nM to reach a half-maximal effect (EC50).

Consider B5, for which the response was half-maximal at 0.05 nM (EC50).

In turn, B6 displayed an EC50 of 0.07 nM.

The target in another experiment is T2, R-PE-labeled recombinant human LAG-3-Fc chimera protein (R&D Systems) (human, UniProt P18627 23-450, conjugated to R-phycoerythrin).
T2 construct: bought; also called LAG-3-Fc-PE; soluble LAG-3; not shown: Fc of the bought chimera, not described
T2 sequence: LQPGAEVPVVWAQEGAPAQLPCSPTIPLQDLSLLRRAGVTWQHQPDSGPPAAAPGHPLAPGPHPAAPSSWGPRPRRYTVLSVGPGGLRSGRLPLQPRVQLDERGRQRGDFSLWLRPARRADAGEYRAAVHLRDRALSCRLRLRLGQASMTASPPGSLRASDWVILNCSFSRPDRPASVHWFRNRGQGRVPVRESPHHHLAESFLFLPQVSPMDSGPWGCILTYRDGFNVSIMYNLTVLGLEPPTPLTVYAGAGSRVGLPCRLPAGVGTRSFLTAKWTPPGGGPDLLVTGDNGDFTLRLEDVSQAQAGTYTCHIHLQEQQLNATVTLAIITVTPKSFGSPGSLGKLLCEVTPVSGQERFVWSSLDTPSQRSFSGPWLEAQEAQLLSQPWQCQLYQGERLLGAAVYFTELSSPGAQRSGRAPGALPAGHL
Description: flow cytometric competition, LAG-3-Fc-PE binding to MHCII on A375 cells, antibody 20 ug/mL.
Turning to B1, the “LAG-3/MHCII Blocking (%)” value was determined as 49%.

In the case of B2, the “LAG-3/MHCII Blocking (%)” value came to 92%.

Regarding B3, the “LAG-3/MHCII Blocking (%)” value was found to be 89%.

As for B4, the “LAG-3/MHCII Blocking (%)” value worked out at 55%.

As to B5, the “LAG-3/MHCII Blocking (%)” value amounted to 94%.

With B6, the “LAG-3/MHCII Blocking (%)” value worked out at 37%.

Take B7: the “LAG-3/MHCII Blocking (%)” value was determined as 92%.
